The target of this test is GST fusion of the SET domain of Trithorax, GST-TrxSET (Drosophila). The experiment in a line: pull-down; 1 μg GST-E(z)SET or GST-TrxSET immobilised on GSH-agarose, mixed 2 h at 4 °C with pre-cleared reticulocyte lysate holding 35S-Asx or its deletion fragments; washes with 0.6 M NaCl, pH 7.9; SDS-PAGE and autoradiography, densitometry relative to GST.
Sequence of GST fusion of the SET domain of Trithorax, GST-TrxSET (Drosophila) (P20659 3583-3709): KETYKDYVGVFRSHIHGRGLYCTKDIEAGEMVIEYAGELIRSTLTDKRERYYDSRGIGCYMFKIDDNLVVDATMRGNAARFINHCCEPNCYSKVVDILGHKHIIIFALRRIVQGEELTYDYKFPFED

The substance “full-length Additional sex combs (Asx), 35S-methionine-labelled, in vitro translated, A(1-1669) (from UniProt Q9V727 1-1669) (natural protein)” returned a fold weaker than the Asx-E(z)(SET) interaction of 5 fold.

Values taken from PMC5605996.
